The term Kd denotes the free concentration of one partner at which half of the binding sites on the other are occupied at equilibrium, for simple one-to-one binding. Low values mean higher affinity, high ones lower affinity. The koff is the rate constant with which the complex falls apart. As a reminder, the kon is the rate constant with which the complex forms. A high value points to faster complex formation.

We go through ten molecules from patent US20160237160A1 (Bayer, published 2016).

Assay [1] concerns the target T1, TPP-2614 (TweakR-ECD-34-68-hIgGFc-His-D47A) (human).
T1 construct: also called D47A TWEAKR mutein
Description: ELISA, IgG coated 1 ug/ml, TWEAKR variant 250 ng/ml, anti-HIS HRP (FIG. 6C). In general terms: In an ELISA, binding on a coated surface is turned into a signal by an enzyme label.
Description: Antibodies were coated (1 μg/ml), TWEAKR variant was added at 250 ng/ml, detection via anti-HIS HRP. […] Antibodies were coated (1 μg/ml), TWEAKR variant was added 250 ng/ml, detection via anti-HIS HRP.

In assay [2] the target is T2, TWEAKR (TNFRSF12A, FN14), human, on tumor cell lines (human, UniProt Q9NP84 28-129). Description: cell-based or functional assay.
Assay [3] addresses T2, TWEAKR (TNFRSF12A, FN14), human, on …. Description: FACS, HT29 cells, 10 ug/ml. In general terms: In flow cytometry, cells or beads pass a laser one at a time.
Description: (§1) To determine the binding characteristics of the anti-TWEAKR antibodies on mouse and human cancer cell lines, binding was tested by flow cytometry to a panel of cell lines. […] Cells were suspended at approximately 10⁵ cells/well in FACS buffer (PBS without Ca/Mg, containing 3% FCS, Biochrom). Cells were centrifuged (250 g, 5 min, 4° C.) and supernatant discarded. Cells were resuspended in dilutions of the antibodies of interest (10 μg/ml in 80 μl if not indicated otherwise) in FACS buffer, and incubated on ice for 1 h. […] After incubation for 1 h on ice cells were again washed with cold FACS buffer, resuspended in 1000 FACS buffer and analyzed by flow cytometry using a FACS-Array (BD Biosciences). Results are calculated as Geo Mean of fluorescence detected by the antibody of interest subtracted by background fluorescence as measured by detection with the secondary antibody alone. Values are scored according to the following system: Geo Mean−Geo Mean of secondary antibody alone >10: +, >100: ++, >1000: +++, 10000: ++++, close to category border in ( ).
Assay [4] has the same target. Put plainly: FACS, WiDr cells, 10 ug/ml.
For assay [5] the target is unchanged. Description: FACS, A375 cells, 10 ug/ml.
Description: as §1
The target in assay [6] is T3, TPP-2305 (hTNFRSF12Aaa28-80) (Human, UniProt Q9NP84 28-80).
T3 construct: monomeric extracellular domain, bought; also called purified recombinant human TWEAKR protein; soluble monomeric TWEAKR
Put plainly: SPR (Biacore T100), IgG captured, TPP-2305 injected, 1:1 model.
Description: Binding affinities of anti-TWEAKR antibodies were determined by surface plasmon resonance analysis on a Biacore T100 instrument (GE Healthcare Biacore, Inc.). Antibodies were immobilized onto a CM5 sensor chip through an indirect capturing reagent, anti-human IgG(Fc). […] Anti-TWEAKR antibodies were injected at a concentration of 10 μg/ml at 10 μl/min for 10 sec.
Sensorgrams were generated after in-line reference cell correction followed by buffer sample subtraction. The dissociation equilibrium constant (KD) was calculated based on the ratio of association (kₒₙ) and dissociation rated (koff) constants, obtained by fitting sensorgrams with a first order 1:1 binding model.

Assay [7] deals with T2, TWEAKR (TNFRSF12A, FN14), human, on …. Description: cell-based or functional assay. The source holds these as a separate data set.
The target is the same in assay [8]. Put plainly: FACS, SKOV-3 cells, 10 ug/ml.
Description: as §1
Assay [9] shares this target. Put plainly: FACS, 786-O cells, 10 ug/ml.
Assay [10] shares this target. Put plainly: FACS, NCI-H322 cells, 10 ug/ml.
Description: as §1
The target is the same in assay [11]. Put plainly: cell-based or functional assay. This is another data set of the same source.
The target of assay [12] is TPP-1989 (hTNFRSF12Aaa28-80-H60K-hIgG1-Fc) (human). Description: ELISA, TWEAKR-Fc coated 62 ng/ml, biotin-IgG titrated; + means IC50 1 to 150 pM.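 Also: biotinylated IgG binding to immobilized TWEAKR-Fc muteins, detected with Streptavidin-HRP and Amplex Red, IC50 derived from fitted dose-response curves of twofold serial dilutions.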
Description: (§2) To collect dose-response data, the different TWEAKR-Fc muteins were coated with a low concentration (62 ng/ml) in a 384-well Maxisorb ELISA plate and a serial 2fold dilution of biotinylated IgG starting with a concentration of 100 nM was used as soluble binding partner. Detection was done with Streptavidin-HRP and Amplex Red.
(§3) The dose-response data were fitted and IC50s determined.
The target of assay [13] is TPP-1987 (hTNFRSF12Aaa28-80-S40R-hIgG1-Fc) (human). Described as above.
Description: as §2, §3
Assay [14] concerns the target TPP-1986 (hTNFRSF12Aaa28-80-T33Q-hIgG1-Fc) (human). The assay is described as above.
Description: as §2, §3
Assay [15] concerns the target TPP-1990 (hTNFRSF12Aaa28-80-L65Q-hIgG1-Fc) (human). Described as above.
Description: as §2, §3
Assay [16] deals with TPP-1988 (hTNFRSF12Aaa28-80-M50A-hIgG1-Fc) (human). Described as above.
Description: as §2, §3
Assay [17] concerns the target T4, TPP-599 (HUMAN-TNFRSF12Aaa28-80-hIgG1-Fc) (human).
T4 construct: dimeric; also called human TWEAKR Fc; TWEAKR-Fc
The assay is described as above.
Description: as §2, §3

B1: TPP-1853 (antibody, human IgG1, kappa, V domains shown)
VH: EVQLLESGGGLVQPGGSLRLSCAASGFTFSPYPMMWVRQAPGKGLEWVSYISPSGGKTHYADSVKGRFTISRDNSKNTLYLQMNSLRAEDTAVYYCARGGDTYFDYFDYWGQGTLVTVSS
VL: DIQMTQSPATLSASVGDRVTITCRASQSISSYLNWYQQKPGKAPKLLIYNASSLQSGVPSRFSGSGSGTDFTLTISSLQPEDFATYYCQQSYTSPGITFGPGTKVEIKR
notes: Human IgG1
In the case of B1, the “% binding normalized by wt binding signal” value (“% binding normalized” below) in [1] is under 5%. In addition, in assay [2], the “Fold induction of Caspase 3/7, 786-O cells, 100 ug/ml” value was found to be 1.88 fold; the “Fold induction of Caspase 3/7, HT-29 cells, 100 ug/ml” value turned out to be 2.53 fold; the “Fold induction of Caspase 3/7, NCI-H322 cells, 100 ug/ml” value was 1.94 fold.

B2: TPP-2093 (antibody, human IgG1, kappa, V domains shown)
VH: EVQLLESGGGLVQPGGSLRLSCAASGFTFSPYPMMWVRQAPGKGLEWVSYISPSGGSTHYADSVKGRFTISRDNSKNTLYLQMNSLRAEDTAVYYCARGGDTYFDYFDYWGQGTLVTVSS
VL: DIQMTQSPSSLSASVGDRVTITCRASQSISSYLNWYQQKPGKAPKLLIYQASSLQSGVPSRFSGSGSGTDFTLTISSLQPEDFATYYCQQSYTSPFITFGQGTKVEIKR
notes: Human IgG1
Turning to B2, the “% binding normalized” value in [1] is under 5%. The “GeoMean of Fluorescence minus GeoMean with the secondary antibody only” value came to 875 in [3]; 1720 in assay [4]; 255 in [5]; 2180 in [8]; 18200 in [9]; 160 in [10]. This molecule also had a Kd in assay [6] of 22.1 nM. In [6], this molecule had a koff of 0.09 s⁻¹. This molecule showed a kon in assay [6] of 4.1e+06 M⁻¹ s⁻¹. The “% Inhibition of proliferation, A253 cells, 72h, 100 ug/ml” value in [7] is over 100%. Also, the “% Inhibition of proliferation, HT-29 cells, 24h, 100 ug/ml” value in assay [7] was over 100%. For the same molecule, in assay [2], the “Fold induction of Caspase 3/7, 786-O cells, 100 ug/ml” value turned out to be 1.43 fold. In addition, in assay [2], the “Fold induction of Caspase 3/7, HT-29 cells, 100 ug/ml” value was 2.54 fold.

B3: TPP-883 (antibody, human IgG1, kappa, V domains shown)
VH: EVQLLESGGGLVQPGGSLRLSCAASGFTFSPYPMMWVRQAPGKGLEWVSYISPSGGKTHYADSVKGRFTISRDNSKNTLYLQMNSLRAEDTAVYYCARGGDGYFDYFDYWGQGTLVTVSS
VL: DIQMTQSPATLSASVGDRVTITCRASQSISSYLNWYQQKPGKAPKLLIYAASSLQSGVPSRFSGSGSGTDFTLTISSLQPEDFATYYCQQSYSSPGITFGPGTKVEIKR
notes: Human IgG1; parent antibody from the phage library
As to B3, the “% binding normalized” value in assay [1] is under 5%. Moreover, in assay [6], binding was put at a Kd of 206 nM, the koff is 0.91 s⁻¹ and the kon is 4.4e+06 M⁻¹ s⁻¹.

B4: TPP-2148 (antibody, human IgG1, kappa, V domains shown)
VH: EVQLLESGGGLVQPGGSLRLSCAASGFTFSPYPMMWVRQAPGKGLEWVSYISPSGGKTHYADSVKGRFTISRDNSKNTLYLQMNSLRAEDTAVYYCARGGDTYFDYFDYWGQGTLVTVSS
VL: DIQMTQSPATLSASVGDRVTITCRASQSISSYLNWYQQKPGKAPKLLIYQASSLQSGVPSRFSGSGSGTDFTLTISSLQPEDFATYYCQQSYTSPFITFGPGTKVEIKR
notes: Human IgG1
For B4, in assay [1], the “% binding normalized” value was under 5%. Moreover, in assay [6], binding was put at a Kd of 24.5 nM, the koff was 0.13 s⁻¹ and the association rate constant (kon) is 5.1e+06 M⁻¹ s⁻¹.

B5: TPP-2149 (antibody, human IgG1, kappa, V domains shown)
VH: EVQLLESGGGLVQPGGSLRLSCAASGFTFSPYPMIWVRQAPGKGLEWVSYISPSGGKTHYADSVKGRFTISRDNSKNTLYLQMNSLRAEDTAVYYCARGGDTYFDYFDYWGQGTLVTVSS
VL: DIQMTQSPATLSASVGDRVTITCRASQSISGYLNWYQQKPGKAPKLLIYQASSLQSGVPSRFSGSGSGTDFTLTISSLQPEDFATYYCQQSYTSPFITFGPGTKVEIKR
notes: Human IgG1
With B5, the “% binding normalized” value in [1] was under 5%. In assay [6], this molecule showed a Kd of 12.1 nM, a koff of 0.1 s⁻¹ and a kon of 8.4e+06 M⁻¹ s⁻¹.

B6: TPP-1858 (antibody, human IgG1, kappa, V domains shown)
VH: EVQLLESGGGLVQPGGSLRLSCAASGFTFSPYPMMWVRQAPGKGLEWVSYISPSGGKTHYADSVKGRFTISRDNSKNTLYLQMNSLRAEDTAVYYCARGGDTYFDYFDYWGQGTLVTVSS
VL: DIQMTQSPATLSASVGDRVTITCRASQSISSYLNWYQQKPGKAPKLLIYNASSLQSGVPSRFSGSGSGTDFTLTISSLQPEDFATYYCQQSYTSPFITFGPGTKVEIKR
notes: Human IgG1
Turning to B6, in assay [1], the “% binding normalized” value was under 5%. Besides, in assay [2], the “Fold induction of Caspase 3/7, 786-O cells, 100 ug/ml” value was 2.22 fold; the “Fold induction of Caspase 3/7, HT-29 cells, 100 ug/ml” value was 2.41 fold; the “Fold induction of Caspase 3/7, NCI-H322 cells, 100 ug/ml” value stood at 2.01 fold.

B7: TPP-1854 (antibody, human IgG1, kappa, V domains shown)
VH: EVQLLESGGGLVQPGGSLRLSCAASGFTFSPYPMIWVRQAPGKGLEWVSYISPSGGKTHYADSVKGRFTISRDNSKNTLYLQMNSLRAEDTAVYYCARGGDTYFDYFDYWGQGTLVTVSS
VL: DIQMTQSPATLSASVGDRVTITCRASQSISGYLNWYQQKPGKAPKLLIYNASSLQSGVPSRFSGSGSGTDFTLTISSLQPEDFATYYCQQSYTSPFITFGPGTKVEIKR
notes: Human IgG1
For B7, the “% binding normalized” value in [1] is under 5%. Moreover, the “IL-8 release from A375 cells at 100 ug/ml, % of the activation by 300 ng/ml TWEAK ligand” value in [11] is 129%. In [2], the “Fold induction of Caspase 3/7, 786-O cells, 100 ug/ml” value came to 2.11 fold; the “Fold induction of Caspase 3/7, HT-29 cells, 100 ug/ml” value came out at 2.7 fold; the “Fold induction of Caspase 3/7, NCI-H322 cells, 100 ug/ml” value stood at 1.98 fold.

B8: TPP-1857 (antibody, human IgG1, kappa, V domains shown)
VH: EVQLLESGGGLVQPGGSLRLSCAASGFTFSPYPMMWVRQAPGKGLEWVSYISPSGGKTHYADSVKGRFTISRDNSKNTLYLQMNSLRAEDTAVYYCARGGDTYFDYFDYWGQGTLVTVSS
VL: DIQMTQSPATLSASVGDRVTITCRASQSISGYLNWYQQKPGKAPKLLIYNASSLQSGVPSRFSGSGSGTDFTLTISSLQPEDFATYYCQQSYTSPGITFGPGTKVEIKR
notes: Human IgG1
As for B8, the “% binding normalized” value in assay [1] was under 5%. In assay [2], the “Fold induction of Caspase 3/7, 786-O cells, 100 ug/ml” value is 1.76 fold; the “Fold induction of Caspase 3/7, HT-29 cells, 100 ug/ml” value turned out to be 2.37 fold; the “Fold induction of Caspase 3/7, NCI-H322 cells, 100 ug/ml” value was found to be 1.89 fold.

B9: ITEM-4 (antibody, V domains shown)
VH: QVQLQQSGPELVKPGASVKMSCKASGYTFTDFIIAWVKQRTGQGLEWIGEIYPGTGRTYYSEKFRGKATLTADKSSNTAYMQLSSLTSVDSAVYFCARRTIYYDYDGDYWGQGTTLTVSS
VL: DIVMTQAAFSNPVTLGTSASISCRSSKSLLHSNGITYLYWYLQKPGQSPQLLIYQMSNLASGVPDRFSSSGSGTDFTLRISRVEAEDVGVYYCAHNLELPWTFGGGTKLELK
In [6], B9 displayed a Kd of 0.7 nM.

B10: 18.3.3(TPP-2193) (antibody, mouse IgG2a, kappa, V domains shown)
VH: EVKLGESGGGLVQPGGSMKLSCVASGFPFTKYWMNWVRQSPEKGLEWVAEIRLKSDNYATHYAESAKGRFTISRDDSRSSVYLQMNNLRAEDTAIYYCSPTYADTMDYWGQGTSVTVSS
VL: DIVLTQSPASLAVSLGQRATISCKASQSVSTSTYSYMQWYQQRPGQSPKLLIKYASKLDSGVPARFSGSGSGTDFTLNIHPVEEEDTATYYCQHSWELPYTFGGGTRLEIKR
notes: Murine IgG2a; variable domains from WO2009/020933 with constant region added
On to B10, for which the binding result in assay [12], in [13], in assay [14], in assay [15], in assay [16] and in [17] was “binds” in each case. In [6], the Kd is 1.7 nM. The molecule further registered a koff in assay [6] of 0.0285 s⁻¹. The same molecule gave a kon in assay [6] of 1.64e+07 M⁻¹ s⁻¹.
